Laboratory results from patent US20130011380A1.
“And” between values parts separate entries of the source, which are not always exact repeats. Identical values can stand only once.

Assays:
Experiment in all cases: anti-Flag IP-MS, mES nuclear extract
[1] = target: Kars (mouse) (UniProt Q99MN1)
[2] = target: Kpnb1 (mouse) (UniProt P70168)
[3] = target: Rfc5 (mouse) (UniProt Q9D0F6)
[4] = target: Cct2 (mouse) (UniProt P80314)
[5] = target: Etl4 (mouse) (UniProt A2AQ25)
[6] = target: Cct7 (mouse) (UniProt P80313)
[7] = target: Rbm25 (mouse) (UniProt B2RY56)
[8] = target: Nup160 (mouse) (UniProt Q9Z0W3)
[9] = target: Mcm4 (mouse) (UniProt P49717)
[10] = target: Pcnt (mouse) (UniProt P48725)
[11] = target: Aff4 (mouse) (UniProt Q9ESC8)
[12] = target: Alpl (mouse) (UniProt P09242)
[13] = target: Smc4 (mouse) (UniProt Q8CG47)
Chain of Smc4 (mouse) (Q8CG47 whole entry): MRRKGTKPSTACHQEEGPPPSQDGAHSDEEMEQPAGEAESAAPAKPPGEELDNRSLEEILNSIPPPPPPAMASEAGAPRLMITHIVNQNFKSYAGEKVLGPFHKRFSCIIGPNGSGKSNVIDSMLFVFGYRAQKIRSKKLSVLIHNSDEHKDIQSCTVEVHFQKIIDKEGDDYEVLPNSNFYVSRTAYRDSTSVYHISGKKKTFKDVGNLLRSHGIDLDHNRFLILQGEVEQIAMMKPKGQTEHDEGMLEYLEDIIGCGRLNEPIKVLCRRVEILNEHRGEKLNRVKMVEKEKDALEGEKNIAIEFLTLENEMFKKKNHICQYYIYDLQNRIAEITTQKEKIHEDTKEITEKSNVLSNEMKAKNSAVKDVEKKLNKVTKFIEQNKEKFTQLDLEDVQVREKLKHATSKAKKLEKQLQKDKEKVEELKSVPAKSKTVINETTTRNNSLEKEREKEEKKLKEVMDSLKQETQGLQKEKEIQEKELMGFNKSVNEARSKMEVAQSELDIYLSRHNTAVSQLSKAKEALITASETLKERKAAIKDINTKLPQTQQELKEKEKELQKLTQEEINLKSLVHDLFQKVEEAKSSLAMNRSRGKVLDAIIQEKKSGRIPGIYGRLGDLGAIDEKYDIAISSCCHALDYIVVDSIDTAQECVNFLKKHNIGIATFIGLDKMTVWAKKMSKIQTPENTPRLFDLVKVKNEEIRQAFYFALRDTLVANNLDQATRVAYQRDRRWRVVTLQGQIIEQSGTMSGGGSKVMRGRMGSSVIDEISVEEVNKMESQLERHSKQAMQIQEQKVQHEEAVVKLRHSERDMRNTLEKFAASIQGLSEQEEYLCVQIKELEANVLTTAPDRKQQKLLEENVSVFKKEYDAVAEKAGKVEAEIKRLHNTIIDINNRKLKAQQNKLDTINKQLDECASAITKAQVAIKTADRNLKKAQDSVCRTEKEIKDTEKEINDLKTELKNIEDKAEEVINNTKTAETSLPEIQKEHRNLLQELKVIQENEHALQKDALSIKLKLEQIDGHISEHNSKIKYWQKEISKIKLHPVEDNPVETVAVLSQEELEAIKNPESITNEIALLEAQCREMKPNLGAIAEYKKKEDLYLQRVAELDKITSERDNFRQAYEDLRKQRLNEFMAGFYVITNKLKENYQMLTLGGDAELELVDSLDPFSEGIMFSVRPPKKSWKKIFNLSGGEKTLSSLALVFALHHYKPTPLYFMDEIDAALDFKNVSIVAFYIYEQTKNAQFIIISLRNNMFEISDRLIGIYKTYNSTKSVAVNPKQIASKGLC

[14] = target: Eno2 (mouse) (UniProt P17183)
[15] = target: Ahdc1 (mouse) (UniProt Q6PAL7)
Chain of Ahdc1 (mouse) (Q6PAL7 whole entry): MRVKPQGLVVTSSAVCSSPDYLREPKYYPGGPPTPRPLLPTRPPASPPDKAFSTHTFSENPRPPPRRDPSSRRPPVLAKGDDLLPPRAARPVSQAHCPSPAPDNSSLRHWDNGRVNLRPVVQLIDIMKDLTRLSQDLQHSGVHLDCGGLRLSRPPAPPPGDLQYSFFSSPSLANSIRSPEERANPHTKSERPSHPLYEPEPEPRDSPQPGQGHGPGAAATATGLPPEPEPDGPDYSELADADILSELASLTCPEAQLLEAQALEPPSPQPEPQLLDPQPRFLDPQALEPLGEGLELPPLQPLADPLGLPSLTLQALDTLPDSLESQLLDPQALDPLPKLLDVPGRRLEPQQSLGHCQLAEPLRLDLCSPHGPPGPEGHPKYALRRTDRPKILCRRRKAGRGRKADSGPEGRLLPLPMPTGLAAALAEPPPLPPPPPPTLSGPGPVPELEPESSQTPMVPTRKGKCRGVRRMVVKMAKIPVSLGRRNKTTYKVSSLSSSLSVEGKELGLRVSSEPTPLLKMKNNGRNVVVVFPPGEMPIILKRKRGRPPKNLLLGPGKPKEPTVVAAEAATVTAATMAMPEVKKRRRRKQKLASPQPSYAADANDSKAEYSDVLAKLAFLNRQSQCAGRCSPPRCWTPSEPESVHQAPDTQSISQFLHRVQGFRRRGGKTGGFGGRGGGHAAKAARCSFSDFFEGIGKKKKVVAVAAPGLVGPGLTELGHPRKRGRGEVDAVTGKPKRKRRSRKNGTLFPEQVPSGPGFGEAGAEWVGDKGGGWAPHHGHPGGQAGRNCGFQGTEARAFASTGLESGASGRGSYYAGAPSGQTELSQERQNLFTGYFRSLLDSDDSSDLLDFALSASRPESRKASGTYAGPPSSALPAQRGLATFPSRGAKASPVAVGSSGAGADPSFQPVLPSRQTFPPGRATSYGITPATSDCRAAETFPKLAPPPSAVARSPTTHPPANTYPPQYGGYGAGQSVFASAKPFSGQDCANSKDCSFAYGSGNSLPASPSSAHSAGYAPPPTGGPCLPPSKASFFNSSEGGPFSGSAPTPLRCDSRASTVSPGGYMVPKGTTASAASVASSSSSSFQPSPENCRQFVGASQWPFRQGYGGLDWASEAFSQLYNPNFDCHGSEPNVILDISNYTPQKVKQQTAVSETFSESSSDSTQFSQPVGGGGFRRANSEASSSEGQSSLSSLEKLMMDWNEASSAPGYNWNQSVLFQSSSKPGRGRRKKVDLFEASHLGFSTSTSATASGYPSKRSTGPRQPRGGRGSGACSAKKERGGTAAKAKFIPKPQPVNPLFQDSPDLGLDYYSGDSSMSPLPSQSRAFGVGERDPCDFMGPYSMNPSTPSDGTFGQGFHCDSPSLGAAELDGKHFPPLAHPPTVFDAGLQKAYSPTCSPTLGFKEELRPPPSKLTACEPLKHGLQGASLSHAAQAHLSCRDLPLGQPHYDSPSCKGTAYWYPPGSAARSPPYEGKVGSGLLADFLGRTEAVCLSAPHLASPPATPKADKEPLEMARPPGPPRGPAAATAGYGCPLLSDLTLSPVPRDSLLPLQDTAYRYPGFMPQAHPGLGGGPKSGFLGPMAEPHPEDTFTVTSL

[16] = target: Ddb1 (mouse) (UniProt Q3U1J4)
[17] = target: Smarcad1 (mouse) (UniProt Q04692)
Chain of Smarcad1 (mouse) (Q04692 whole entry): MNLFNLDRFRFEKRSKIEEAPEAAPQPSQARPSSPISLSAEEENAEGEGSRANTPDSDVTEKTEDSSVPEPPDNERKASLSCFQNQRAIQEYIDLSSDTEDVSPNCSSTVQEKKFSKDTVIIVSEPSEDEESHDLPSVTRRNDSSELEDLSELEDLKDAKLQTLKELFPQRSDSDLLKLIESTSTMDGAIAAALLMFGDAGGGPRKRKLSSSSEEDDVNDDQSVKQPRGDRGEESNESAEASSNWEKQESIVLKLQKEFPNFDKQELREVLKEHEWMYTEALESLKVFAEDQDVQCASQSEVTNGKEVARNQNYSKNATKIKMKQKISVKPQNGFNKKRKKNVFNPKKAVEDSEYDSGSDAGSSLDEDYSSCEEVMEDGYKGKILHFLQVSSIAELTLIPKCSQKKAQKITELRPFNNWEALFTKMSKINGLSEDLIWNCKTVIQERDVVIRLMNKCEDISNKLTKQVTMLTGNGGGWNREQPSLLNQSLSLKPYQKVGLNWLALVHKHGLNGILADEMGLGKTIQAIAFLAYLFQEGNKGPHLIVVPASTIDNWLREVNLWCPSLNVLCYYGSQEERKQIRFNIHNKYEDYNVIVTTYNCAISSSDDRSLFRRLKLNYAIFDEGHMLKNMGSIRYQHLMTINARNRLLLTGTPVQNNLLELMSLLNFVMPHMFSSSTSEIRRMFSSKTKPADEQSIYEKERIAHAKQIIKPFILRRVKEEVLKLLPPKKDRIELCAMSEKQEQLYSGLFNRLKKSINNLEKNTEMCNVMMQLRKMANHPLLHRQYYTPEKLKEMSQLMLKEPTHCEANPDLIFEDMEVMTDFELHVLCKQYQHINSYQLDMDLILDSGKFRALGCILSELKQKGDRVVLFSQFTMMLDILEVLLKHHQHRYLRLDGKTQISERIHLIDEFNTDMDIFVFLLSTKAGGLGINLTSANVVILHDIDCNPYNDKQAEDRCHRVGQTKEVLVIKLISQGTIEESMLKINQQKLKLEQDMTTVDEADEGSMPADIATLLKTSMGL

[18] = target: Cnot1 (mouse) (UniProt Q6ZQ08)
[19] = target: Sall4 (mouse) (UniProt Q8BX22)
[20] = target: Nup214 (mouse) (UniProt Q80U93)
[21] = target: Peg10 (mouse) (UniProt Q7TN75)
[22] = target: Tip2 (mouse)
[23] = target: Tmpo (mouse)
[24] = target: Prpf4b (mouse) (UniProt Q61136)
[25] = target: Lmo7 (mouse) (UniProt E9PYF4)
[26] = target: Ssr1 (mouse) (UniProt Q9CY50)
Chain of Ssr1 (mouse) (Q9CY50 22-286 limits assumed): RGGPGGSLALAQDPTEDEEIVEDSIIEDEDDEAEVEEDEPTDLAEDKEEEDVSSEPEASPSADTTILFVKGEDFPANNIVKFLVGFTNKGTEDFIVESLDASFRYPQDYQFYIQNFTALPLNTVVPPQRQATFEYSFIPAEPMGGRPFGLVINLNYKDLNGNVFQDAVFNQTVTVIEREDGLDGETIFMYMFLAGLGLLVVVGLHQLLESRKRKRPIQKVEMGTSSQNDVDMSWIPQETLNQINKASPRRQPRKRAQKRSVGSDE

[27] = target: Vdac1 (mouse) (UniProt Q60932)
Chain of Vdac1 (mouse) (Q60932 whole entry): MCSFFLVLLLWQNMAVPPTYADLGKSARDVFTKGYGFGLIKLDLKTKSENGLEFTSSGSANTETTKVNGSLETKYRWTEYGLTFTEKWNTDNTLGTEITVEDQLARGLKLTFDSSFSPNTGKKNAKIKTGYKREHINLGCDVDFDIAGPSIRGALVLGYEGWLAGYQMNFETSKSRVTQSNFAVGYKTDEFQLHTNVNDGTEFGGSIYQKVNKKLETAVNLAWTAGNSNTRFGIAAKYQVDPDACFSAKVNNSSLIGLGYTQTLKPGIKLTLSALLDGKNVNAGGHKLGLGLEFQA

[28] = target: Pou5f1 (mouse) (UniProt P20263)
Chain of Pou5f1 (mouse) (P20263 whole entry): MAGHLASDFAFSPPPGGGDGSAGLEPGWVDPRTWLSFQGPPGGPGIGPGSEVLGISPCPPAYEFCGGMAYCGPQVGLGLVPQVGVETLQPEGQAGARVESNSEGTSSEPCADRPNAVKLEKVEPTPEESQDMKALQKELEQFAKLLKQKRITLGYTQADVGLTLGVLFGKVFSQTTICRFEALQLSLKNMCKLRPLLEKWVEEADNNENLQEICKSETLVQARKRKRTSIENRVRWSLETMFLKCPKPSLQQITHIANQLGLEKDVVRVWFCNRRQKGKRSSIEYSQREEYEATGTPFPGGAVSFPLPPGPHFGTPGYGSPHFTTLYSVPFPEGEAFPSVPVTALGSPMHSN

[29] = target: Prdx6 (mouse) (UniProt O08709)
Chain of Prdx6 (mouse) (O08709 2-224 limits assumed): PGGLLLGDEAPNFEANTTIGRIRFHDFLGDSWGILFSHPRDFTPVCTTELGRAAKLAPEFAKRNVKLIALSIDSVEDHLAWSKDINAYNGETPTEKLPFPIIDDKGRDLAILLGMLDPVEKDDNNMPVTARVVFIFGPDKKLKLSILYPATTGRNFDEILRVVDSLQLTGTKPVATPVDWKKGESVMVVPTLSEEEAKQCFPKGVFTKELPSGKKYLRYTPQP

[30] = target: Atxn2l (mouse) (UniProt Q7TQH0)
[31] = target: Smc3 (mouse) (UniProt Q9CW03)
[32] = target: Kif23 (mouse) (UniProt E9Q5G3)

2x Flag tag only (control) (peptide)
Nucleus peptide [1]: 0 peptides
Nucleus spectra [1]: 0 spectra
Nucleus peptide [2]: 5 peptides
Nucleus spectra [2]: 13 spectra
Nucleus peptide [3]: 0 peptides
Nucleus spectra [3]: 0 spectra
Nucleus peptide [4]: 2 peptides
Nucleus spectra [4]: 4 spectra
Nucleus peptide [5]: 0 peptides
Nucleus spectra [5]: 0 spectra
Nucleus peptide [6]: 0 peptides
Nucleus spectra [6]: 0 spectra
Nucleus peptide [7]: 3 peptides
Nucleus spectra [7]: 7 spectra
Nucleus peptide [8]: 6 peptides
Nucleus spectra [8]: 11 spectra
Nucleus peptide [9]: 2 peptides
Nucleus spectra [9]: 2 spectra
Nucleus peptide [10]: 0 peptides
Nucleus spectra [10]: 0 spectra
Nucleus peptide [11]: 0 peptides
Nucleus spectra [11]: 0 spectra
Nucleus peptide [12]: 5 peptides
Nucleus spectra [12]: 10 spectra
Nucleus peptide [13]: 1 peptides
Nucleus spectra [13]: 2 spectra
Nucleus peptide [14]: 1 peptides
Nucleus spectra [14]: 2 spectra
Nucleus peptide [15]: 0 peptides
Nucleus spectra [15]: 0 spectra
Nucleus peptide [16]: 0 peptides
Nucleus spectra [16]: 0 spectra
Nucleus peptide [17]: 1 peptides
Nucleus spectra [17]: 1 spectra
Nucleus peptide [18]: 3 peptides
Nucleus spectra [18]: 4 spectra
Nucleus peptide [19]: 1 peptides
Nucleus spectra [19]: 1 spectra
Nucleus peptide [20]: 7 peptides
Nucleus spectra [20]: 11 spectra
Nucleus peptide [21]: 2 peptides
Nucleus spectra [21]: 2 spectra
Nucleus peptide [22]: 6 peptides
Nucleus spectra [22]: 14 spectra
Nucleus peptide [23]: 2 peptides
Nucleus spectra [23]: 6 spectra
Nucleus peptide [24]: 0 peptides
Nucleus spectra [24]: 0 spectra
Nucleus peptide [25]: 0 peptides
Nucleus spectra [25]: 0 spectra
Nucleus peptide [26]: 0 peptides
Nucleus spectra [26]: 0 spectra
Nucleus peptide [27]: 1 peptides
Nucleus spectra [27]: 1 spectra
Nucleus peptide [28]: 2 peptides
Nucleus spectra [28]: 3 spectra
Nucleus peptide [29]: 1 peptides
Nucleus spectra [29]: 1 spectra
Nucleus peptide [30]: 2 peptides
Nucleus spectra [30]: 3 spectra
Nucleus peptide [31]: 0 peptides
Nucleus spectra [31]: 0 spectra

human AID containing two tandem Flag tags (Flag-human AID) (from UniProt Q9GZX7 1-198) (enzyme)
Nucleus peptide [1]: 6 peptides
Nucleus spectra [1]: 9 spectra
Nucleus peptide [2]: 15 peptides
Nucleus spectra [2]: 43 spectra
Nucleus peptide [3]: 3 peptides
Nucleus spectra [3]: 5 spectra
Nucleus peptide [4]: 8 peptides
Nucleus spectra [4]: 17 spectra
Nucleus peptide [5]: 7 peptides
Nucleus spectra [5]: 13 spectra
Nucleus peptide [6]: 3 peptides
Nucleus spectra [6]: 5 spectra
Nucleus peptide [32]: 4 peptides and 7 peptides
Nucleus spectra [32]: 11 spectra and 18 spectra
Nucleus peptide [7]: 6 peptides
Nucleus spectra [7]: 15 spectra
Nucleus peptide [8]: 12 peptides
Nucleus spectra [8]: 24 spectra
Nucleus peptide [9]: 6 peptides
Nucleus spectra [9]: 13 spectra
Nucleus peptide [10]: 5 peptides
Nucleus spectra [10]: 6 spectra
Nucleus peptide [11]: 13 peptides
Nucleus spectra [11]: 25 spectra
Nucleus peptide [12]: 12 peptides
Nucleus spectra [12]: 25 spectra
Nucleus peptide [13]: 5 peptides
Nucleus spectra [13]: 7 spectra
Nucleus peptide [14]: 3 peptides
Nucleus spectra [14]: 7 spectra
Nucleus peptide [15]: 8 peptides
Nucleus spectra [15]: 15 spectra
Nucleus peptide [16]: 3 peptides
Nucleus spectra [16]: 3 spectra
Nucleus peptide [17]: 5 peptides
Nucleus spectra [17]: 8 spectra
Nucleus peptide [18]: 6 peptides
Nucleus spectra [18]: 11 spectra
Nucleus peptide [19]: 6 peptides
Nucleus spectra [19]: 10 spectra
Nucleus peptide [20]: 13 peptides
Nucleus spectra [20]: 29 spectra
Nucleus peptide [21]: 3 peptides
Nucleus spectra [21]: 5 spectra
Nucleus peptide [24]: 3 peptides
Nucleus spectra [24]: 7 spectra
Nucleus peptide [26]: 3 peptides
Nucleus spectra [26]: 9 spectra
Nucleus peptide [27]: 4 peptides
Nucleus spectra [27]: 5 spectra
Nucleus peptide [28]: 4 peptides
Nucleus spectra [28]: 13 spectra
Nucleus peptide [29]: 3 peptides
Nucleus spectra [29]: 3 spectra
Nucleus peptide [30]: 4 peptides
Nucleus spectra [30]: 9 spectra
Nucleus peptide [31]: 12 peptides
Nucleus spectra [31]: 23 spectra
